The values that follow come from US20200262927A1 (OXFORD BIOTHERAPEUTICS, published 2020).

Test [1] concerns the target T1, Recombinant hCRTAM/Fc Chimera (R&D Systems, Catalogue 1695-CR) (human, UniProt O95727 18-286).
T1 construct: also called human recombinant hCRTAM/Fc chimera; Fc part of the bought chimera not given
T1 sequence: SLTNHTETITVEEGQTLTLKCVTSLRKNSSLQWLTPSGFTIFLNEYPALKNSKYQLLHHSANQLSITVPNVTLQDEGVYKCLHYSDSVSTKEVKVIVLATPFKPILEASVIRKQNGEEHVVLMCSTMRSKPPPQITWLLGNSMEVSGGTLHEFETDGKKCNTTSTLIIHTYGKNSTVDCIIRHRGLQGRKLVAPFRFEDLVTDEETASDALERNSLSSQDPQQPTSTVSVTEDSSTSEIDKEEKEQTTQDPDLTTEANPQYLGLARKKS
The test is described as follows: Octet BLI, antibody captured on anti-human IgG Fc biosensors, hCRTAM/Fc chimera as analyte from 200 nM diluted 1:3, global 1:1 fit. As to the method:
(§1) Anti-human IgG-Fc Capture (AHC) ForteBio biosensors were loaded with the test antibodies at a concentration of 1 μg/mL over 300 seconds.
(§2) The loaded biosensors were incubated with 5 concentrations of human recombinant hCRTAM/Fc chimera starting at 200 nM, which was serially diluted 1:3; a reference well contained kinetic buffer only (to correct for drift).
(§3) The data from all concentrations were fit using a global 1:1 curve fit for each sample. Where possible the kinetic association and dissociation rates and the KD values were determined.
Background: BLI is a label-free optical method that tracks binding on a fibre tip over time.

For test [2], the target named is T1, Recombinant hCRTAM/Fc Chimera (R&D …). Nature of the test: Octet BLI, antibody captured on anti-human IgG Fc biosensors, hCRTAM/Fc chimera as analyte, global 1:1 fit. On the procedure: as §1, §2, §3

B1: humanised 5A11 antibody (antibody, V domains shown)
VH: EVQLVESGGGLVQPGGSLKLSCAASGFTFSDAAMYWVRQASGKGLEWVARIRTKTNNYAAHYVESVKGRFTVSRDDSKNTVYLQMNSLKTEDTAMYYCTSVPQGTQDYWGQGTLVTVSS
VL: SYELTQPSSVSVSPGQTARITCSGDVLSKRYAQWSQQKPGQAIVSVIYKDSERPSGIPERFSGSSSGTTATLTISGAQVEDEADYYCLSTYADDNLPVFGGGTKLTVL
notes: Captured on anti-human IgG Fc biosensors, so it carried a human IgG Fc; also called humanized antibody 5A11
As a reminder, the Kd is the equilibrium constant for the complex coming apart. Broadly, the koff is a measure of how fast the partners let go of each other. As a reminder, the kon is the rate constant with which the complex forms. On to B1, for which the Kd in test [1] was 0.439 nM. In test [2], the koff came to 0.00011 s⁻¹ and the kon was 249000 M⁻¹ s⁻¹.
